Consider three molecules from patent US6635738.

For data set [1], the target named is IL-1 receptor on PC12 cells. Nature of the data set: cell-based or functional assay.
Data set [2] addresses IL-1β in PC12 cell cultures. Kind of data set: cell-based or functional assay.
Data set [3] deals with Recombinant human pro-IL-1β, P01584.
Chain of Recombinant human pro-IL-1β, P01584 (P01584 whole entry, looked up): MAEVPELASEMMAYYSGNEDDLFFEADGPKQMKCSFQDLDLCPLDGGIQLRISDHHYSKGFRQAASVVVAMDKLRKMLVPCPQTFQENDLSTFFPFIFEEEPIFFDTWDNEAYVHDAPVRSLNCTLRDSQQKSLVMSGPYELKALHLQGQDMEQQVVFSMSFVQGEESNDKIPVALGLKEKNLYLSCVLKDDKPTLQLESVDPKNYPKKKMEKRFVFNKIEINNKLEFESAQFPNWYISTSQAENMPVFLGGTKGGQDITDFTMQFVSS

Turning to “IL-1 receptor antagonist (rmIL-1Ra) (from UniProt P25085 27-178) (ligand)”, the suppression of death of V-ASOD1 treated (SOD1 deficient) PC12 cells; antagonist concentration used in data set [1] is 100 ng/mL. Take “Blocking monoclonal hamster anti-mouse IL-1β antibody (Genzyme)”: the suppression of death of V-ASOD1 treated (SOD1 deficient) PC12 cells; antibody concentration used in data set [2] amounted to 30 µg/mL.

B1: Recombinant human ICE (interleukin 1β converting enzyme) (protein)
chain: NPAMPTSSGSEGNVKLCSLEEAQRIWKQKSAEIYPIMDKSSRTRLALIICNEEFDSIPRRTGAEVDITGMTMLLQNLGYSVDVKKNLTASDMTTELEAFAHRPEHKTSDSTFLVFMSHGIREGICGKKHSEQVPDILQLNAIFNMLNTKNCPSLKDKPKVIIIQACRGDSPGVVWFKDSVGVSGNLSLPTTEEFEDDAIKKAHIEKDFIAFCSSTPDNVSWRHPTMGSVFIGRLIEHMQEYACSCDVEEIFRKVRFSFEQPDGRAQMPTTERVTLTRCFYLFPGH
Turning to B1, the “cleavage of pro-IL-1β by ICE in vitro (SDS-PAGE and immunoblot)” value in data set [3] was “There is some cleavage in the presence of the inhibitor but much less than seen with ICE alone”.
